# Test results taken from article PMC6547453 (2019).
# T1: EsCas13d ([Eubacterium] siraeum DSM 15702)
# T1 chain: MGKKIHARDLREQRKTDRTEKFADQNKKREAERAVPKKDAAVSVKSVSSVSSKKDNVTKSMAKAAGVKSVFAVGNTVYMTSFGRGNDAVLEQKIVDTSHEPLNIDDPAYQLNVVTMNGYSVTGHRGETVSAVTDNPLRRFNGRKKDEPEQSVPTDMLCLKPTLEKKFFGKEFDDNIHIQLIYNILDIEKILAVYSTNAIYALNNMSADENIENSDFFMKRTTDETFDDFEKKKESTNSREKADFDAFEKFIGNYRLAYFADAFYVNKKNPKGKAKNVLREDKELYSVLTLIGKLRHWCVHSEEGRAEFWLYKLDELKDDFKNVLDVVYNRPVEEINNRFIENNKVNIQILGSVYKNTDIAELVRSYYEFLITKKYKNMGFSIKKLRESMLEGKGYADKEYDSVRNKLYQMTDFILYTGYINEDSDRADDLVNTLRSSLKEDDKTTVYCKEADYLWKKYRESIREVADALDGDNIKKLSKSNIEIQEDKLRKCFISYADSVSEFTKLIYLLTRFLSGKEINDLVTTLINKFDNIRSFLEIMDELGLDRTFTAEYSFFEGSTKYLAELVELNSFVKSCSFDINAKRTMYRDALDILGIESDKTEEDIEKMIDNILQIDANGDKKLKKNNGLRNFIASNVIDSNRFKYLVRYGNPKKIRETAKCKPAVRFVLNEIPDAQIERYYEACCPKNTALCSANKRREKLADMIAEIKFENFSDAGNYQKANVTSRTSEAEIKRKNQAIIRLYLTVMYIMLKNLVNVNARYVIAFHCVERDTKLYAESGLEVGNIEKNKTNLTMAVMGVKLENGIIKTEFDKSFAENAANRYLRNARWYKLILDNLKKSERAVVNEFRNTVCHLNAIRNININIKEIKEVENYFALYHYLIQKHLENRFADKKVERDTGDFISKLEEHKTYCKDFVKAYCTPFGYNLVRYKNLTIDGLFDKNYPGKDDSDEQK
# B1: full-length RspWYL1 (Ruminococcus sp. WYL1, amino acids 1–392) (natural protein)
# chain: MLIPPSTFLPKRDKNVPYIAEVQSIPLSPSAYSVIIKDKSIFETSLSPNGSVSMSSFLTSIFDSAYIASLKYKSDDNYKYIGIPLLNAFVEWQIEEIDDSLDDKSKEIIKSYLISKLSAKYEKTKTENAVRVRLSICRDLYDTLSSDDLYYENKVYSLTLRRFLKAVYEDYALLSDCERERLIFADNIIKINEVIKQNGSRYYSFIYAYSNMYSREKRRIRLIPYRIVSDEYKMYNYLVCLSDEKSAGKEFKADSYRISRLSGLSIAEKLSQKEYSSVTEYERLKEGHVKSVKHLLSDPRFGSDESDISKVYLTEKGVEMFRKILYQRPILKGNEKPKPNTVNEFISPPIQVKYYFNKFGKDGVILSPSDSFEEMRTLYVEGADAYNREVEM
# modifications: apo (no crRNA); full length assumed, since limits are not given; 954 aa matches the known EsCas13d length
# B2: full-length RspWYL1 (Ruminococcus sp. WYL1, amino acids 1–392) (natural protein)
# chain: B1 chain
# Experiments:
# [1] = target: T1, EsCas13d; experiment: ITC
# [2] = target: RspCas13d (Ruminococcus sp. (from the prefix Rsp, …)); experiment: ITC
Binder,Kd [1] [µM],Kd [2] [µM]
B1,~270,–
B2,–,~250
